Laboratory results as given in US20110123534A1 (ERASMUS UNIVERSITY MEDICAL CENTER ROTTERDAM, published 2011).

Target: Rac1 (endogenous in HUVEC lysate) (human, UniProt P63000 1-189)
Experiment: co-immunoprecipitation with anti-FGD5 antibody from lysates of FGD5 overexpressing HUVECs, western blot
Procedure: GTP-RhoA, Rac1, and cdc42 activation levels were measured using the G-lisa detection system (Tebu-Bio, The Netherlands). For FGD5-protein complex co-immunoprecipitation, magnetic beads (Dynabeads, Invitrogen, The Netherlands) were coated and cross-linked with 2.5 μg anti-FGD5 antibody (Bioscience, The Netherlands) before immunoprecipitation overnight at 4° C. with protein cell lysates of transfected HUVECs (50 μg total protein of a volume of 100 μl incubation buffer). Beads were washed and the protein samples were eluted with eluation buffer (Invitrogen, The Netherlands) before analysis by western blot.

B1: FYVE, RhoGEF and PH domain-containing 5 (FGD5), human, overexpressed in HUVECs by adenovirus (Ad-FGD5) (other)
chain: MFRGPKPPIAPKPRLTAPNEWRASVYLNDSLNKCSNGRLPCVDRGLDEGPRSIPKCSESETDEDYIVVPRVPLREDEPKDEGSVGNKALVSPESSAEEEEEREEGGEACGLEGTGAGEDSVAPAAPGAGALSREGEEGTDLALEDEGEGCADEPGTLEQVSRSEEEEKLVQPHRECSLEDSGPWAGEGVFQSDLLLPHIHGEDQEPPDTPGEAEEDDEEGCASTDPAGADEGSGPDRPTEDMGQDAEDTSEEPPEKEELAGVQEAETATDCPEVLEEGCEEATGVTGGEQVDLSEPPDHEKKTNQEVAAATLEDHAQDESAEESCQIVPFENDCMEDFVTSLTGSPYEFFPTESTSFCSESCSPLSESAKGLESEQAPKLGLRAEENPMVGALCGQCGSLQGGAAEGPAAPDVVVVLEEEALDDALANPYVMGVGLPGQAAPGEGGQAASDALGGYGSKEELNCEAEGGLVPADRKNTSTRVRPHSGKVAGYVPETVPEETGPEAGSSAPGIGGAAEEVGKTLLSLEGKPLEASRALPAKPRAFTLYPRSFSVEGREIPVSVYQEPEGSGLDDHRIKRKEDNLSLSCVIGSSGSFSQRNHLPSSGTSTPSSMVDIPPPFDLACITKKPITKSSPSLLIESDSPDKYKKKKSSFKRFLALTFKKKTENKLHVDVNVSSSRSSSESSYHGPSRILEVDRRSLSNSPQLKSRTGKLRASESPSSLIFYRDGKRKGVPFSRTVSRVESFEDRSRPPFLPLPLTKPRSISFPSADTSDYENIPAMNSDYENIQIPPRRPARAGAFTKLFEDQSRALSTANENDGYVDMSSFNAFESKQQSADQDAESAYTEPYKVCPISSAAPKEDLTSDEEQRSSEEEDSASRDPSVTHKVEGQSRALVIAQELLSSEKAYVEMLQHLNLDFHGAVMRALDDMDHEGRDTLAREELRQGLSELPAIHDLHQGILEELEERLSNWESQQKVADVFLAREQGFDHHATHILQFDRYLGLLSENCLHSPRLAAAVREFEQSVQGGSQTAKHRLLRVVQRLFQYQVLLTDYLNNLCPDSAEYDNTQGALSLISKVTDRANDSMEQGENLQKLVHIEHSVRGQGDLLQPGREFLKEGTLMKVTGKNRRPRHLFLMNDVLLYTYPQKDGKYRLKNTLAVANMKVSRPVMEKVPYALKIETSESCLMLSASSCAERDEWYGCLSRALPEDYKAQALAAFHHSVEIRERLGVSLGERPPTLVPVTHVMMCMNCGCDFSLTLRRHHCHACGKIVCRNCSRNKYPLKYLKDRMAKVCDGCFGELKKRGRAVPGLMRERPVSMSFPLSSPRFSGSAFSSVFQSINPSTFKKQKKVPSALTEVAASGEGSAISGYLSRCKRGKRHWKKLWFVIKGKVLYTYMASEDKVALESMPLLGFTIAPEKEEGSSEVGPIFHLYHKKTLFYSFKAEDTNSAQRWIEAMEDASVL
notes: Guanine-nucleotide exchange factor; Made with the pAd/CMV/V5 gateway system; also called Ad-FGD5 transgene product
Question: Does B1 bind?
Answer: no binding
